# Laboratory results reported in patent US10393755B2, “Compositions and methods for treating eye infections and disease” (UNIVERSITY OF VIRGINIA PATENT FOUNDATION, priority 2014, dated 2019).
# Columns and labels:
# [1] = test system: HCE-T cells; assay: Ca2+ imaging (Fluo-4 AM); assay type: cell-based, human
# Method: SV40-immortalized HCE-T cells (Riken Cell Bank, Japan) were grown in keratinocyte-SFM media (KSFM, Life Technologies, Rockville, Md.) containing bovine pituitary extract (BPE, 50 mg/ml) and epidermal growth factor (EGF, 5 ng/ml). Cell passages 4-6 were used for Ca2+ imaging, scratch and uptake assays in 35 mm coverslip-bottomed dishes. To optimize responsiveness upon stimuli, cells were starved with EGF and BPE free medium for 24 h before experimentation.
# HCE-Ts were rinsed twice with Ca2+ and Mg2+ free phosphate buffer saline (PBS) and incubated at 37° C. for 20 min fresh KSFM medium containing […] calcium probe Fluo-4 AM (Invitrogen Life technologies, NY). […] The cells were illuminated at 488 nm, and their emission was monitored every 3.15 s at 510 nm using Zeiss LSM 510 Meta confocal microscope system. The field of interest contained 24 to 45 cells, and the fluorescent intensity change was calculated for each region with image-analysis software. Ca2+ dynamics were evaluated using the changes in fluorescence intensity of Fluo-4 AM. The data are presented as percentage change in fluorescence intensity at each time point (Ft) to the first time point (F0) reading: (Ft−F0)/F0×100%.
# [2] = test system: HCE-T monolayers; assay: In vitro scratch closure assay; assay type: cell-based, human; settings: 10 nM, 24 h, compared to plain medium without growth factors
# Method: For a scratch assay, confluent HCE-T monolayers were scraped in a straight line to create a scratch wound with a p200 pipet tip. Cells were rinsed with KSFM medium without BPE or EGF to remove debris and then incubated with fresh KSFM medium containing BPE (50 mg/ml) and EGF (5 ng/ml), LSI, or medium without growth factors (No treat). Phase contrast images of the wound at the beginning and after 24 h treatment were captured using Zeiss LSM 510 Meta confocal microscope system.
# [3] = test system: HCE-Ts; assay: Exogenous cell uptake assay (rhodamine labeled); assay type: cell-based, human; settings: NHS-rhodamine labeled
# Method: SI and LSI nanoparticles were conjugated with NHS-rhodamine (Thermo Fisher Scientific Inc, Rockford, Ill.) via covalent modification of the amino terminus. Conjugation was performed in 100 mM borate buffer (pH 8.0) for 2 h (LSI) or overnight (SI) at 4° C. followed by desalting on a PD10 column (GE Healthcare, Piscataway, N.J.) to remove free dye. Briefly, after the cells were rinsed with fresh medium without BPE and EGF, […] rhodamine labeled proteins were added into the dish. After incubation at 37° C. for different time points, the cells were rinsed and images were acquired using Zeiss LSM 510 Meta confocal microscope system.
# [4] = test system: NOD mice corneal epithelium; assay: Murine corneal abrasion and recovery study; assay type: in vivo, mouse
# Method: Briefly, 12 week female NOD mice were anesthetized with an i.p. injection of xylaxine/ketamine (60-70 mg+5 mg/kg) and placed on a heating pad. After cleaning the ocular surface with eye wash (OCuSOFT, Inc., TX), the corneal epithelium of the right eye was removed down to the basement membrane using an algerbrush II (The Alger Company, Inc., TX); the left eye was left intact as a contra lateral control. Mice were allowed to heal for 24 h with 2 doses ([…]) of KSFM medium containing BPE (50 mg/ml) and EGF (5 ng/ml), […] LSI, […] SI, or no treatment at 12 h intervals. After staining the ocular surface with […] 0.6 mg/ml fluorescein (Akorn, Ill.), images of the abrasion wound were captured using a Moticam 2300 camera after 12 h and 24 h.
# [5] = Phase behavior and nanoparticle formation (optical density, DLS, TEM); assay type: physicochemical; parameters: Phase transition temperature / Tt1, critical micelle temperature (CMT): dose or concentration left out as unconfirmed
# Method: The phase diagram for LSI fusion protein was characterized by optical density change at 350 nm as a function of solution temperature using a DU800 UV-Vis Spectrophotometer (Beckman Coulter, Brea, Calif.). Tt was defined at the point of the maximum first derivative. Self-assembly of nanoparticles was measured using dynamic light scattering (DLS) using a DynaPro-LSR Plate Reader (Wyatt Technology, Santa Barbara, Calif.). Light scattering data were collected at regular temperature intervals (1° C.) as solutions were heated from 5 to 50° C. The results were analyzed using a Rayleigh sphere model and fitted into a cumulant algorithm based on the sum-of-squares value.
# The TEM imaging was carried out on a FEI Tecnai 12 TWIN microscope (Hillsboro, Oreg.) at 100 kV. Briefly, a 100 uM solution (5 uL) was initially deposited on a copper grid with carbon film (CF400-Cu, Election Microscopy Sciences, Hatfield, Pa.). After removing the excess amount of solution with filter paper, the samples were negatively stained with 2% uranyl acetate, followed by removing excess uranyl acetate after 30 s. b The samples were then dried under room temperature for at least 3 h before use in imaging.
molecule,measurement,setting,value
"LSI: lacritin fused to diblock ELP (VPGSG)48(VPGIG)48; forms thermoresponsive nanoparticles (protein, ELP lacritin fusion construct; (129)..(133) the sequence VPGSG is directly repeated 48 times; (134)..(138) The sequence VPGIG is directly repeated 48 times, forms thermoresponsive nanoparticles) GEDASSDSTGADPAQEAGTSKPNEEISGPAEPASPPETTTTAQETSAAAVQGTAKVTSSRQELNPLKSIVEKSILLTEQALAKAGKGMHGGVPGGKQFIENGSEFAQKLLKKFSLLKPWAGLVPRGSGVPGSGVPGIGY",Maximum fluorescence intensity change compared to baseline (F0),[1]; Fluo-4 AM loaded HCE-T cells,4.399+/−1.043 fold
same,Ca2+ influx peak duration on second treatment,"[1]; same concentration, second time, from 40",70 s
same,Scratch wound healing,[2],significantly accelerated scratch wound healing
same,Cytosolic fluorescence (cell uptake),[3],significantly higher cytosolic fluorescence than SI nanoparticles
same,Time to significant cell entry,[3],10 m
same,Percentage of initial wound area (PctArea),"[4]; 5 ml of 100 mM topical at 0 and 12 h, 12 and 24 hours, compared to SI, EGF+BPE, no treatment",significantly decreased
same,"Abrasion wound healing, LSI compared with LS96","[4]; 12 h, eight mice per group",significantly (p<0.05) faster
same,Corneal epithelium histology after 24 h,[4]; hematoxylin and eosin,complete recovery
same,"Tt1, critical micelle temperature (CMT)",[5],32.3 °C
same,Hydrodynamic radius compared with LS96,"[5]; DLS, 37° C.",much larger hydrodynamic radius than LS96
same,Nanoparticle size by DLS above Tt,[5]; above Tt,130-140 nm
same,Nanoparticle size by DLS below Tt,[5]; below Tt,30-40 nm
same,Average diameter by TEM,[5]; dried from room temperature,67.1+/−11.5 nm
same,Phase transition temperature,[5]; optical density,18.4 °C
